Experimental data as given in patent publication US20250382344A1, “Soluble GLP1/GIP/NPY2 Receptor Triple Agonists” (Boehringer Ingelheim International GmH, priority 2024, published 2025).
*1 amine or outer side, *2 acyl side, *3 side chain or, on linkers, in order; H or OH if unused. Where no end group is shown, it is not given here. Side-chain parts run from the residue outwards. [ ]: non-standard residue; d: D form. The star is where a group is joined. C20 diacid = O=C(O)CCCCCCCCCCCCCCCCCCC(=O)*; C18 diacid = O=C(O)CCCCCCCCCCCCCCCCC(=O)*; γGlu = O=C(O)[C@H](CCC(=O)[*:2])N[*:1]; εLys = N[C@@H](CCCCN[*:1])C(=O)[*:2]; TRX = not defined here; Aib = CC(C)(N)C(=O)O

Key:
human GIP receptor = target: T1, human GIP receptor (human, UniProt P48546 22-466); assay: cell-based or functional assay
T1 sequence (looked up): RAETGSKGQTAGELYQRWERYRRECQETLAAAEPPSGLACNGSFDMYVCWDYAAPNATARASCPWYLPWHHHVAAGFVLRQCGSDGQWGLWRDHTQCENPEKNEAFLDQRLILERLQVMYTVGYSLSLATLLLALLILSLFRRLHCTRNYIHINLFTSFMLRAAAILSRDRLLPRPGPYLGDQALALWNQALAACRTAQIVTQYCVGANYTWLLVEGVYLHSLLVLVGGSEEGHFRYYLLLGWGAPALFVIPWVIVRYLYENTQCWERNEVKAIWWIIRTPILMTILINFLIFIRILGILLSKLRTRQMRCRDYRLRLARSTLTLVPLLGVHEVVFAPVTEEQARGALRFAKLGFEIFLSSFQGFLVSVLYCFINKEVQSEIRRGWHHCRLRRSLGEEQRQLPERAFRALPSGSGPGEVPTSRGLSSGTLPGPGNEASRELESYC

[1] = target: T2, human neuropeptide Y2 receptor (human, UniProt P49146 1-381); assay: cell-based or functional assay
T2 sequence (looked up): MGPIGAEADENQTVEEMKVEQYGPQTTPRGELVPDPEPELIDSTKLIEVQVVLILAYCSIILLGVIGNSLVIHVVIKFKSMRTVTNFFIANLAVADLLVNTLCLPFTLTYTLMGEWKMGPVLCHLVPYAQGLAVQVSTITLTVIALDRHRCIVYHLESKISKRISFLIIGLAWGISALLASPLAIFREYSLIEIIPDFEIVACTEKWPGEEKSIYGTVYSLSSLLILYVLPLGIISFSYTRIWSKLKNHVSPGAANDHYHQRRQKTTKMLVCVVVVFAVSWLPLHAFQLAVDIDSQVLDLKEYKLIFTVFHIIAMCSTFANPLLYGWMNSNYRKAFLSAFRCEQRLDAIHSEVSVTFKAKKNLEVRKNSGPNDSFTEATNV

B1: Compound 80 (peptide)
peptide: YXEGTFTSDYSIXLEKQAQXAFVRHLLNKXTRQRY
modifications: Aib at 2, 13, 20, 30; Lys29 epsilon-amino acylated with C20DA-gGlu-gGlu-gGlu-gGlu-gGlu-gGlu-eLys; C-terminal amide
EC50, CreLuc reporter, 0.5% hP (human GIP receptor): 1.7 nM

B2: Compound 71 (peptide)
peptide: YXEGTFTSDYSIXLEEQAQXAFVRHLINKXTRQRY
modifications: Aib at 2, 13, 20, 30; Lys29 epsilon-amino acylated with C18DA-gGlu-gGlu-gGlu-gGlu-gGlu-gGlu-eLys; C-terminal amide
EC50, CreLuc reporter, 0.5% hP (human GIP receptor): 0.3 nM

B3: Compound 20 (peptide)
peptide: YXEGTFTSDLSIXLEKQAQXAFVRHLINKXTRQRY
modifications: Aib at 2, 13, 20, 30; Lys29 epsilon-amino acylated with C20DA-gGlu-gGlu-gGlu-gGlu-gGlu-gGlu-eLys; C-terminal amide
EC50, CreLuc reporter, 0.5% hP (human GIP receptor): 0.4 nM

B4: Compound 24 (peptide)
peptide: YXEGTFTSDYSIXLEKIAQXAFVRHLINKXTRQRY
modifications: Aib at 2, 13, 20, 30; Lys29 epsilon-amino acylated with C18DA-gGlu-gGlu-gGlu-gGlu-gGlu-gGlu-eLys; C-terminal amide
EC50, CreLuc reporter, 0.5% hP (human GIP receptor): 1 nM
EC50, CreLuc reporter, 100% hP (human GIP receptor): 26.2 nM

Y[Aib]EGTFTSDYSI[Aib]LEKQAQ[Aib]AFVRHLINK([γGlu-γGlu-γGlu-γGlu-γGlu-γGlu-TRX-C18 diacid])[Aib]TRQRY-NH2 (reading uncertain) [Compound 31]
EC50, CreLuc reporter, 100% hP (human GIP receptor): 14.9 nM
EC50, CreLuc reporter, 0.5% hP [1]: 76.4 nM
EC50, CreLuc reporter, 100% hP [1]: 131 nM

Y[Aib]EGTFTSDYSILLEKQAQ[Aib]AFVRHLINK([γGlu-γGlu-γGlu-γGlu-γGlu-γGlu-C20 diacid])[Aib]TRQRY-NH2 [Compound 57]
EC50, CreLuc reporter, 0.5% hP (human GIP receptor): 0.3 nM

Y[Aib]EGTFTSDYSI[Aib]LEKQAQ[Aib]AFVRHLINK([εLys-γGlu-γGlu-γGlu-γGlu-γGlu-γGlu-γGlu-C18 diacid])ITRQRY-NH2 [Compound 18]
EC50, CreLuc reporter, 0.5% hP (human GIP receptor): 0.2 nM

Y[Aib]EGTFTSDYSI[Aib]LEKQAQ[Aib]EFVRHLINK([εLys-γGlu-γGlu-γGlu-γGlu-γGlu-γGlu-γGlu-C18 diacid])LTRQRY-NH2 [Compound 32]
EC50, CreLuc reporter, 0.5% hP (human GIP receptor): 0.5 nM
EC50, CreLuc reporter, 100% hP (human GIP receptor): 6.5 nM
EC50, CreLuc reporter, 0.5% hP [1]: 17.1 nM
EC50, CreLuc reporter, 100% hP [1]: 44.6 nM
